Reference: the supplement of paper PMC10567573

B1: PTPRD (parent)
chain: PVVSMDLDPQPITDEEEGLIWVVG
B2: C9orf9 (parent)
chain: TKHKCRQLTKASLKPRGCSKPPWR

Variants of: B1
Assay: protein stability index of a GFP-peptide fusion (GPS, HEK-293T) (PSI 1-6); higher = more stable
Settings: c terminus: a fixed tail appended
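Also: lentivirally expressed fusions sorted by FACS into six bins by GFP to DsRed ratio, PSI derived from sequencing read proportions per bin multiplied by bin number.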

Protein stability index of substitutions, site by site:
G24: C 1.85; Q 3.55; V 1.7; L 1.51; H 3.87; T 3.21; F 1.34; S 3.36; I 1.54; M 2.87; N 4.15; W 1.41; D 4.45; Y 3.09; E 3.77; K 4.06
V23: Y 4.4; R 5.03; T 4.93; N 4.45; S 5.01; P 4.97

Variants of: B2
Assay: as above
Settings: c terminus: a fixed tail appended

Protein stability index: each site, then its substitutions
S12: R 3.37; D 2.82; Q 3.25; T 2.6; P 3.28; N 3.19; E 2.57; A 2.98; C 2.41; K 3.81; I 2.87; H 2.35; Y 2.06; F 2.28; L 2.19; G 3.76; W 2.09; M 1.54
K4: H 2.66; F 1.82; M 2.15; V 2.25; Q 2.88; Y 1.95; P 2.21; I 1.99; G 2.83; C 1.91; R 2.45; A 2.94; T 2.67; N 2.78; S 2.9; L 1.72
Q7: N 3.14; A 2.96; D 4.68; R 2.56; P 3.14; L 1.29; K 3.27; G 2.75; M 2.14; E 2.73; S 3.27; F 1.63; T 2.06; I 2.08; V 1.97; H 2.5; C 2.17; Y 2.72
C18: F 2.69; Y 2.18; P 3.32; K 3.42; T 3.11; N 3.22; W 2.06; M 2.58; L 3.6; I 2.2; H 3.02; A 2.71; R 3.03; S 1.35; Q 3.32; E 3.01; D 3.06; V 2.1; G 3.76
R16: G 2.42; D 3.28; H 2.6; P 3.31; C 2.75; K 2; T 2.67; I 2.56; N 3.08; E 2.33; S 2.89; Y 2.28; W 1.69; A 2.72; V 3.76; L 2.56; M 2.45
S19: Q 2.44; K 2.37; D 2.77; R 3.63; A 1.5; N 2.44; M 2.94; F 2.33; G 2.21; L 3.11; E 2.02; C 2.36; T 3.02; I 2.08; V 3.35; P 1.92
G17: S 2.82; K 3.32; M 2.09; A 2.83; L 2.14; F 2.23; P 2.08; D 2.79; Y 2.52; W 1.92; Q 3.6; E 3.49; H 2.76; T 2.78; N 2.43; I 2.86; R 3.03; C 1.83
A11: W 2.27; M 1.94; H 3.04; E 2.27; S 2.78; F 1.67; I 2.29; Q 2.16; Y 2.48; P 3.89; G 3.46; V 2.57; T 2.92; K 2.85; D 2.81; C 2.23; N 2.95; L 2.59
L8: D 3.07; W 2.43; H 2.98; E 3.62; M 2.62; I 2.37; G 2.58; A 3.21; N 3.04; P 4.04; Y 2.35; C 2.89; F 3.24; K 3.02; S 3.12; R 3.54; T 3.22
T9: I 2.22; M 2.48; V 2.92; W 2.25; Y 3.38; Q 3.14; N 3.87; A 2.2; G 2.56; S 2.27; L 2.17; F 4.48; H 2.47; K 3.57; P 3.18
T1: E 2.52; F 3.6; N 3.18; L 2.44; S 2.96; R 3.56; D 3.22; W 1.77; A 3.08; I 2.59; Y 2.09; C 2.45; G 3.17; Q 2.46; K 2.62; P 3.06; M 2.64
C5: R 3.76; W 2.17; F 2.4; V 2.88; G 2.21; Q 3.33; T 2.24; N 2.15; L 2.2; H 2.44; E 3.12; A 3.24; S 2.87; D 3.56; Y 2.88; M 1.84; K 3.65
R6: N 2.78; H 3.25; C 2.6; I 1.86; P 1.91; S 2.59; L 2.56; D 3.03; Q 3.1; Y 3.72; K 2.76; M 2.19; T 2.4; G 3.22; W 2.46; E 3.17; V 2.84
K2: S 4.18; M 2.16; D 3.81; I 1.64; C 2.68; A 1.36; Y 2.1; N 2.78; W 2.57; T 2.27; P 4.64; G 3.88
P15: Y 1.68; F 2.77; R 3.93; C 2.5; G 3.41; K 3.52; H 4.16; N 2.86; W 2.22; I 2.66; E 2.59; L 2.01; S 3; D 3.17; T 2.67; M 2.32
K10: W 2.46; P 2.71; I 2.73; Q 2.77; F 2.58; E 1.74; S 3.07; L 2.21; Y 2.53; H 2.11; R 3.59; T 3.42; M 2.38; N 2.8; D 1.94
H3: T 2.83; P 3.03; D 3.12; W 2.42; S 3.02; C 1.44; K 3.09; R 3.11; E 2.77; Y 3.08; F 2.27
L13: P 3.42; G 4.47; Q 3.57; D 3.64; E 2.91; R 3.55; A 3.23; V 2.33; T 3.32; W 3.03; Y 2.43; N 2.92; M 2.8; I 3.22; F 2.63; C 3.26; H 2.88; S 3.5
K14: D 2.2; M 1.73; S 2.86; Y 1.54; A 2.24; E 3; T 3.17; C 2.63; N 3.41; W 2.56; L 2.75; Q 2.68; I 2.2; V 2.79; F 2.78; R 2.52; P 2.98
